{
  "source": "paper doi:10.1101/2025.03.11.642517",
  "about": "(bioRxiv, 2025)",
  "binders": {"B1": {"name": "Biotinylated prefusion NiV F with AviTag (domain or fragment)", "chain": "ILHYEKLSKIGLVKGVTRKYKIKSNPLTKDIVIKMIPNVSNMSQCTGSVMENYKTRLNGILTPIKGALEIYKNNTHDLVGDVRLAGVIMAGVAIGIATAAQITAGVALYEAMKNADNINKLKSSIESTNEAVVKLQETAEKTVYVLTALQDYINTNLVPTIDKISCKQTELSLDLALSKYLSDLLFVFGPNLQDPVSNSMTIQAISQAFGGNYETLLRTLGYATEDFDDLLESDSITGQIIYVDLSSYYIIVRVYFPILTEIQQAYIQELLPVSFNNDNSEWISIVPNFILVRNTLISNIEIGFCLITKRSVICNQDYATPMTNNMRECLTGSTEKCPRELVVSSHVPRFALSNGVLFANCISVTCQCQTTGRAISQSGEQTLLMIDNTTCPTAVLGNVIISLGKYLGSVNYNSEGIAIGPPVFTDKVDISSQISSMNQSLQQSKDYIKEAQRLLDT", "modifications": "biotin (on the AviTag, by BirA)"}, "B2": {"name": "DS90 clone, E. coli crude extract of the bacterial display library (VHH)", "VHH": "VQLVESGGGLVQAGGSLRLSCAASGRTFSSYVMGWYRQAPGKEREFVARISWSGGHTHSADSVKGRFTISRDNAKNTVYLQMNSLKPDDTAIYYCNAEPTVTGSWFTPGLQSYWGQGTQVTVSS"}, "B3": {"name": "DS34 clone, E. coli crude extract of the bacterial display library (VHH)", "VHH": "B2 VHH with V101A"}, "B4": {"name": "DS76 clone, E. coli crude extract of the bacterial display library (VHH)", "VHH": "B2 VHH with R18G, T100S"}, "B5": {"name": "DS29 clone, E. coli crude extract of the bacterial display library (VHH)", "VHH": "VQLVESGGGLVQPGGSLRLSCAASGFTFDDYGMSWVRQAPGKGLEWVSAISWNGGGTYYAESMKGRFTISRDNAKNTVYLQMNGLKPEDTAVYYCAKPSTYSGSWLTDFGSWGQGTQVTVSS"}, "B6": {"name": "Bacterially expressed DS90-cMyc (VHH)", "VHH": "B2 VHH"}},
  "key": {"[1]": {"target": "DS90 FcM (DS90 nanobody fused to human monomeric Fc) (alpaca (Vicugna pacos))", "test": "SPR"}, "[2]": {"target": "DS76 FcM (DS76 nanobody fused to human monomeric Fc) (alpaca (Vicugna pacos))", "test": "SPR"}, "[3]": {"target": "DS34 FcM (DS34 nanobody fused to human monomeric Fc) (alpaca (Vicugna pacos))", "test": "SPR"}, "[4]": {"target": "DS90 Fc dimer (DS90 nanobody fused to human Fc) (alpaca (Vicugna pacos))", "test": "SPR"}, "[5]": {"target": "NiV F expressed in HeLa cells under IRES-GFP (Nipah virus, Malaysia, UniProt Q9IH63)", "test": "immunostaining of cells or tissue"}},
  "note": "Where a chain is given by its changes, count along the chain named.",
  "data": [
    {"binder": "B1", "values": [
      {"measurement": "Kd", "setting": "[1]", "value": 4.83, "unit": "nM"},
      {"measurement": "Kd", "setting": "[2]", "value": 303, "unit": "nM"},
      {"measurement": "Kd", "setting": "[3]", "value": 23.4, "unit": "nM"},
      {"measurement": "binding result", "setting": "[4]", "value": "binds"}
    ]},
    {"binder": "B2", "values": [
      {"measurement": "binding result", "setting": "[5]", "value": "binds"}
    ]},
    {"binder": "B3", "values": [
      {"measurement": "binding result", "setting": "[5]", "value": "binds"}
    ]},
    {"binder": "B4", "values": [
      {"measurement": "binding result", "setting": "[5]", "value": "binds"}
    ]},
    {"binder": "B5", "values": [
      {"measurement": "binding result", "setting": "[5]", "value": "binds"}
    ]},
    {"binder": "B6", "values": [
      {"measurement": "binding result", "setting": "[5]", "value": "binds"}
    ]}
  ]
}
